This is an account of results in patent US20200262921A1 (SHANGHAI KANDA BIOTECHNOLOGY, published 2020).

Assay [1] has as its target T1, Recombinant human CTLA-4-Fc fusion protein (R&D Systems, Catalog number 352-CTY/CF) (human, UniProt P16410 37-162).
T1 construct: range 37-162; Bought reagent; also called rhCTLA-4; rhCTLA-4-Fc; not shown: immunoglobulin gamma I Fc region
T1 sequence (looked up): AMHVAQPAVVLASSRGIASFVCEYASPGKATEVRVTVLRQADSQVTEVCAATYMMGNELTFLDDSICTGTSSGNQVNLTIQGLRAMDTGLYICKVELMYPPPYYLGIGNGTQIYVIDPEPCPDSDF
Put plainly: ELISA on coated CTLA-4 (rhCTLA-4-Fc), scFv phage at one amount, anti-M13-HRP, absorbance at 450 nm. A general note: ELISA stands for enzyme-linked immunosorbent assay.

Assay [2] has as its target T1, Recombinant human CTLA-4-Fc fusion …. Put plainly: ELISA, plates coated with purified rhCTLA-4, 4-parameter fit; C5 mAb.
For assay [3] the target is unchanged. Description: ELISA on coated rhCTLA-4, goat anti-human IgG F(ab') alkaline phosphatase, OD 415 nm.
For assay [4] the target is unchanged. Put plainly: BLI (Fortebio), mAb captured on sensors, rhCTLA-4-Fc in solution 100 nM to 1.6 nM. As for the experimental part:
Kinetic analysis of binding to rhCTLA-4. […] The sensors were then blocked in the blocking solution for 5 min. Recombinant human CTLA-4-Fc protein was two-fold serial diluted in the blocking solution to 7 different concentrations, range from 100 nM to 1.6 nM. Kinetic association assays were started by putting antibody-capturing sensors into above serial diluted CTLA-4-Fc solutions. One sensor was immersed into the blocking solution as negative control. After 5 min binding, all sensors were moved to the blocking solution to start kinetic dissociation assays. Assays were stopped after 7 min.

The target is the same in assay [5]. Description: competition ELISA on coated rhCTLA-4-Fc, 10 ng/ml biotin-B7-1-Fc mixed with the antibody, streptavidin alkaline phosphatase, absorption at 405 nm.
Description: Human recombinant CTLA-4-Fc (2 ug/ml) in 50 ul of 20 mM NaHCO3, pH 9.7 was coated on 96-well plates and incubated at 4° C. overnight. After rhCTLA-4-Fc was removed, the plates were blocked with 100 ul of 3% BSA in wash/dilution buffer (TBS buffer, pH 7.0 containing 0.05% Tween-20) at 37° C. for 2 hours. […] The mixtures (50 ul/well) were added to rhCTLA-4-Fc coated plates and incubated at 37° C. for 2 hours. The solution was decanted, and the plates were washed 3 times with wash buffer. Alkaline phosphatase conjugated streptavidin (Herochem Inc., China) was diluted 2500-fold in binding buffer and add 50 ul/well to plates. After the plates were incubated at 37° C. for 2 hours, the AP-streptavidin solution was decanted, and the plates were washed 6 times with wash buffer. Alkaline phosphatase substrate pNpp solution was added 50 ul/well to plates. The plates were incubated at 37° C. for 20 min and read at 405 nm using a Bio-Rad microplate reader. […] All samples were tested in duplicate.
Assay [6] has the same target. Description: ELISA on coated rhCTLA-4, goat anti-human IgG F(ab') alkaline phosphatase, OD 415 nm. This is another data set of the same source.
Assay [7] has the same target. Put plainly: ELISA, plates coated with purified rhCTLA-4, 4-parameter fit; C2 mAb.

Read-outs that look alike come from different tables or passages of the source.

B1: C15 (scFv, V domains shown, not shown: large carriers; small tags and cut ends)
VH: QVQLVQSGAEVKKPGSSVKVSCKASGGTFSSYAISWVRQAPGQGLEWMGGIIPIFGTANYAQKFQGRVTITADESTSTAYMELSSLRSEDTAVYYCARDTAMALFYYYYGMDVWGQGTLVTVSS
VL: QSALTQPASVSGSPGQSTTISCTGTSSDVGGYNYVSWYQQHPGKAPKLMIYEVSNRPSGVSNRFSGSKSGNTASLTISGLQAEDEADYYCSSYRSSGTPYVFGTGTKLTVL
notes: scFv phage form of clone C15; also called clone C15 scFv phage; C15 scFv; copies: 1 + 1
B1: the binding result in assay [1] was “binds”.

B2: C5 mAb (anti-human CTLA-4 full length human monoclonal antibody) (antibody, V domains shown)
VH: QVQLVQSGAEVKKPGASVKVSCKASGFSFPNYYMHWVRQAPGQGLEWMGIISPTGGSRTYAQKFQGRVTITRDTSTSTVYMELSSLRSEDTAVYYCAREMYNWNGGWDYGMDVWGQGTLVTVSS
VL: QSALTQSASVSGFPGQSITVSCVGTNSDVEAYDLVSWYRQHPDKSPNLLIYDNYKRPSGVSDRFSAFKSGNTASLTISGLQAEDEAYYYCCSYAGFSTWIFGAGTQLTVLG
notes: also called clone C5; KD6001-5
For the molecule B2, in assay [2], the EC50 (commonly the midpoint of the concentration-response curve) was found to be 0.066 µg/mL. In addition, the 50% effective concentration (EC50 (read off the curve)) (usually the concentration needed to bring the measured effect to its halfway point) in assay [3] is about 0.08 µg/mL. Besides, in assay [4], the Kd (in general, the concentration at which binding is half-saturated) was found to be 2.2 nM; the koff (in general, the rate constant with which the complex falls apart) was found to be 0.00061 s⁻¹; the kon – broadly, a measure of how fast the partners come together – stood at 280000 M⁻¹ s⁻¹.

B3: C2 mAb (anti-human CTLA-4 full length human monoclonal antibody) (antibody, V domains shown)
VH: QVQLVQSGGGVVQPGRSLRLSCAASGFTFSSYGMHWVRQAPGKGLEWVAVIWYDGSRQYYADSVKGRFTISRDDSKNTMYLQMNSLRAEDTAVYYCARGGFWGAFDIWGQGTMVTVSS
VL: DVVMTQSPGTLSLSPGEGATLSCRASQHVISSYLAWYQQKPGQAPRLLVYGASSRDTGVSDRFTGSGSGTDFTLTISRLEPEDSAVYFCQQYGTSPWTFGQGTKLEIKR
notes: also called clone C2; KD6001-2
Turning to B3, the “IC50 (read off the curve)” value in assay [5] is about 0.03 µg/mL. Further, in assay [4], the Kd was found to be 0.86 nM, the koff came out at 0.00048 s⁻¹ and the association rate constant (kon) turned out to be 550000 M⁻¹ s⁻¹. Besides, the “EC50 (read off the curve)” value in assay [6] is about 0.03 µg/mL. Moreover, the concentration for a half-maximal effect (EC50) in assay [7] came out at 0.025 µg/mL.
